# Patent US20180162911A1, “POLYPEPTIDES FOR THE DIAGNOSIS AND THE TREATMENT OF C3 NEF ASSOCIATED C3 GLOMERULOPATHY” (INSERM (INSTITUT NATIONAL DE LA SANTÉ ET DE LA RECHERCHE …, priority 2015, published 2018)
# Where no end group is shown, it is not given here.
# Assays:
# [1] = molecular target: C3bBb alternative pathway C3 convertase (UniProt P01024); experiment: SPR (ProteOn XPR36), C3b on GLC chip, convertase formed with FB and FD, control IgG injected
# [2] = molecular target: C3bBbP Properdin-stabilized alternative pathway C3 convertase (UniProt P01024); experiment: SPR (ProteOn XPR36), C3b on GLC chip, convertase formed with FB, FD and FP, control IgG injected
# Sequence of C3bBbP Properdin-stabilized alternative pathway C3 convertase (P01024 23-1663 limits assumed, chain 1 of 3): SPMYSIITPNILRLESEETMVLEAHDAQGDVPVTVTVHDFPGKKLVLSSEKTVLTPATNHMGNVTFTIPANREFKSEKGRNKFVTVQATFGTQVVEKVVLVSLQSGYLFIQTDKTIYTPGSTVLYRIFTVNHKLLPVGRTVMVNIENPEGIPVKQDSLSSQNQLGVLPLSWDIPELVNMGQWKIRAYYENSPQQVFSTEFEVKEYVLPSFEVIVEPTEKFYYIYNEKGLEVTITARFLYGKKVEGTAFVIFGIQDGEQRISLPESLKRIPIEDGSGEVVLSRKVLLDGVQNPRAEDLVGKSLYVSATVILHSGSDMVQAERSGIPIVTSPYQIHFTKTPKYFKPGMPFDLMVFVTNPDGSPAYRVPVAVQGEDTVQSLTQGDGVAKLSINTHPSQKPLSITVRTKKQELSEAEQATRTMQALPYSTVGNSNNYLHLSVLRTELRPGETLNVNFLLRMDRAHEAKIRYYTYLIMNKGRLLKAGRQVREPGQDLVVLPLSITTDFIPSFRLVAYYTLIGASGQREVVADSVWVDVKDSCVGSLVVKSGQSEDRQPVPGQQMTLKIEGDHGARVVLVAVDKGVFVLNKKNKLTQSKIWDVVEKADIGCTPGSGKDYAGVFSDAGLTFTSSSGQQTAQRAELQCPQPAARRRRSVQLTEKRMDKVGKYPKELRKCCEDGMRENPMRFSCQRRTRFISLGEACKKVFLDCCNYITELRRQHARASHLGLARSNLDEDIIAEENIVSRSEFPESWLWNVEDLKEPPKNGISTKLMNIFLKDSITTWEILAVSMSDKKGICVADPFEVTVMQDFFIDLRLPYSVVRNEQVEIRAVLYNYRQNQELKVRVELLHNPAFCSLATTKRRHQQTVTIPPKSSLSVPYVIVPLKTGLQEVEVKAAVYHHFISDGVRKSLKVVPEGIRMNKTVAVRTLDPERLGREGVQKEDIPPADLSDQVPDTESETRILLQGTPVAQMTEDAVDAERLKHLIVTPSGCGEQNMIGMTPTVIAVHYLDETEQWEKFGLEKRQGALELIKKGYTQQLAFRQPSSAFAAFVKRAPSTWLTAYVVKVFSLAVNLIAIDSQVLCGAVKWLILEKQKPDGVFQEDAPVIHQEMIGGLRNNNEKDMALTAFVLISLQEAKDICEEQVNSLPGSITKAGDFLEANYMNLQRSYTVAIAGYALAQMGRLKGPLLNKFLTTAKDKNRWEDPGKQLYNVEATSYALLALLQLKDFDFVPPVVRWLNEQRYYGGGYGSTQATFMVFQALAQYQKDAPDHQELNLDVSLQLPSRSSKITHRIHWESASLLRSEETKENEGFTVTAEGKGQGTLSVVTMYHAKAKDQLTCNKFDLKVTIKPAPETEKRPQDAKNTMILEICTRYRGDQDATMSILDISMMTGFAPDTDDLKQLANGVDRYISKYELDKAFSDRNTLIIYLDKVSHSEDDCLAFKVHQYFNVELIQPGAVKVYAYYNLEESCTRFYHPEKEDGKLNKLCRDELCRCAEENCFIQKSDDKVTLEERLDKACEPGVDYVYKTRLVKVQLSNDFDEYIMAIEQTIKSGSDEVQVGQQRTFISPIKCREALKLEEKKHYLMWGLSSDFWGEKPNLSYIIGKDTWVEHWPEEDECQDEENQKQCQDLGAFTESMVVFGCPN
# Sequence of C3bBbP Properdin-stabilized alternative pathway C3 convertase (P00751 260-764 limits assumed, chain 2 of 3, further chain): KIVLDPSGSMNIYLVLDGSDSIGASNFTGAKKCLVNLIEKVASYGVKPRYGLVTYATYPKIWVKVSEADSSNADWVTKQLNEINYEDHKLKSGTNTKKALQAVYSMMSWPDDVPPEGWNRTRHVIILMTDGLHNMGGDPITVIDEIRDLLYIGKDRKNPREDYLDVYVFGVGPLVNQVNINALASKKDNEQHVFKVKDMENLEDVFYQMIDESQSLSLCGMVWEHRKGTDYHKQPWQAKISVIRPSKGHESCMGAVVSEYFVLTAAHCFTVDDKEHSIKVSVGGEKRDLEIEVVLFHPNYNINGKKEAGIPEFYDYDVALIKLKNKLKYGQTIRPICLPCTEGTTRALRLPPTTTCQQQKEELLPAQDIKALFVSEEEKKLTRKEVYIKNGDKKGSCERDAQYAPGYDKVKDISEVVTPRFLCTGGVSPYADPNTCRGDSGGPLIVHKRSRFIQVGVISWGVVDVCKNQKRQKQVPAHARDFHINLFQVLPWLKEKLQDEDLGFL
# Sequence of C3bBbP Properdin-stabilized alternative pathway C3 convertase (P27918 28-469 limits assumed, chain 3 of 3, further chain): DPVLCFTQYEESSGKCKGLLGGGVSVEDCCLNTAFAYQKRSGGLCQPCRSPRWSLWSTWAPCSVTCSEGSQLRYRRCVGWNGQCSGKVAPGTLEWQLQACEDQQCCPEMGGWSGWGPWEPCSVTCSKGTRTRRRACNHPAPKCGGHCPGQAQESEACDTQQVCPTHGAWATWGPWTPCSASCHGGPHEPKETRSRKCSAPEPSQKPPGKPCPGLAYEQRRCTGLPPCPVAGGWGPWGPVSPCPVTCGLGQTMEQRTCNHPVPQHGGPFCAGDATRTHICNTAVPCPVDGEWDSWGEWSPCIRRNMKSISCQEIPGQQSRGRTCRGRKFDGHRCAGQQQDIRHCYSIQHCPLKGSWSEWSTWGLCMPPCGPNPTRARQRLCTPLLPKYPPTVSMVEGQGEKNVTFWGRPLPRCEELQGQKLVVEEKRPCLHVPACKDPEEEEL
# Properdin [3] = molecular target: T1, Properdin (Homo sapiens, UniProt P27918); experiment: Peptide inhibition assay: inhibition of the stabilization of the C3 convertase mediated by Properdin (haemolytic, membrane-bound C3bBb); type: biochemical; settings: for dose dependence of inhibition of Properdin stabilization: different doses of peptides; for % inhibition of the Properdin stabilization capacity: 50 ng Properdin pre-incubated with 10 μg peptide 2 h at room temperature, n=2 experiments
# T1 construct: purchased Calbiochem
# T1 sequence (P27918 28-469): as the sequence (P27918 28-469 limits assumed, chain 3 of 3, further chain) above
# Description: (§1) The ability of patient' IgG to stabilize a pre-formed membrane bound C3bBb was measured with EAC3bBb generated by the incubation of EC3b with appropriate concentration of FB and FD. Briefly, IgG was partially purified from plasma by chromatography on DEAE-cellulose and subsequently quantified by nephelometry. DEAE eluate contains IgG, and also low levels of contaminants such as Properdin and Factor H. Sheep erythrocytes EAC34b were incubated in presence of FB (Complement Technology) and FD (Sigma) to form the alternative convertase C3bBb. The convertase was allowed to decay in EDTA-containing buffer in presence of 400 μg of patient' IgG. Lysis was developed by the addition of rat serum. C3NeF stabilization was measured as the percentage of the residual convertase compared to the reference control without decay. The cut-off for positive C3NeF was determined as the mean+2 sd of the C3NeF stabilization of IgG from 30 healthy individuals.
# Different mixes of 50 ng of Properdin and 10 μg of peptides were incubated at room temperature for 2 hours with gentle shaking in EDTA-containing buffer. As a control, Properdin was incubated with the peptide's dilution buffer. Membrane-bound convertase was formed as in the C3bBb assay. During the convertase decay step, cells were incubated with the mix of FP and peptides. FP amount was chosen in order to obtain 50% of residual convertase after the decay. Residual convertase was measured and data were expressed as percentage of inhibition (percentage of residual convertase compared to the control without peptide).
# C3NeF (patient IgG) [4] = experiment: Peptide inhibition assay with patients' IgG: reduction of C3NeF stabilization of the C3bBb convertase; type: biochemical, human; settings: for decrease of % stabilization of P1 IgG: 100 μg IgG from P1 (stabilizes only C3bBb) taken as 100%, peptides pre-incubated overnight, n=3 experiments
# Description: as §1
# The test was performed as described earlier, but 80 μg of peptides was utilized and the incubation of IgG and peptides was made at 4° C. overnight. IgG amount was determined depending on their stabilization capacity, in order to obtain 50% of residual convertase after the decay.
# Membrane-bound convertase was formed as in the C3bBb assay. During the convertase decay step, cells were incubated with a fixed dose of Peptides (80 μg) and patient' IgG (amount determined by the concentration of IgG leading to 50% of residual convertase). The concentration of IgG applied in the test was chosen depending on their C3NeF activity.
# Properdin [5] = molecular target: T1, Properdin; experiment: ELISA, biotinylated peptides coated, binding of Properdin
# Description: To investigate whether Properdin binds the peptides biotinylated peptides was coated onto ELISA plates and increased among of Properdin were incubated before adding anti human Properdin.
# C3NeF (patient IgG) [6] = experiment: Peptide inhibition assay with patients' IgG: reduction of C3NeF stabilization of the C3bBb convertase; type: biochemical, human; settings: P1 IgG
# [7] = molecular target: T2, membrane bound C3bBb convertase (Homo sapiens, UniProt P00751+P01024); experiment: C3b erythrocyte based C3bBb convertase stabilization / competition assay; type: biochemical
# T2 construct: EAC3bBb generated by the incubation of EC3b with appropriate concentration of FB and FD; incubated in presence of FB (Complement Technology) and FD (Sigma) to form the alternative convertase C3bBb; purchased Complement Technology (FB); Sigma (FD); host or cells: sheep erythrocytes coated with C3b
# T2 sequence (P01024 23-667 limits assumed): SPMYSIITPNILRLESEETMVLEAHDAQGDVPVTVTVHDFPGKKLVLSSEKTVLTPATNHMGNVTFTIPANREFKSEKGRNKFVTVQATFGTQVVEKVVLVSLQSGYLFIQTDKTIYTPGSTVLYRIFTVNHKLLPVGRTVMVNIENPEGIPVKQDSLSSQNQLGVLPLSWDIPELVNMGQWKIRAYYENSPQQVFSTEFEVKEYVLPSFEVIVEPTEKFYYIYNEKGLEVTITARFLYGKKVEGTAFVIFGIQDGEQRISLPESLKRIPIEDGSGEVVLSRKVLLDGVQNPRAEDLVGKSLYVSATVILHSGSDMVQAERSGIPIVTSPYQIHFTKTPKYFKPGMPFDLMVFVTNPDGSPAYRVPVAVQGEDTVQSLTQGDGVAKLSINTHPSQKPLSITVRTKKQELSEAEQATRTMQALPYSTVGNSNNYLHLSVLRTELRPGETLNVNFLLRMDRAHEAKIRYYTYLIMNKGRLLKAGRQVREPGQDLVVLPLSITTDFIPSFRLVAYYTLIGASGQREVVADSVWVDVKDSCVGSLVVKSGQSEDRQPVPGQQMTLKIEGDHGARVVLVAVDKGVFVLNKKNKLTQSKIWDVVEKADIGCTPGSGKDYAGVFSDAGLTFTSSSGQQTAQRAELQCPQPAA
# T2 sequence (P01024 749-1663 limits assumed): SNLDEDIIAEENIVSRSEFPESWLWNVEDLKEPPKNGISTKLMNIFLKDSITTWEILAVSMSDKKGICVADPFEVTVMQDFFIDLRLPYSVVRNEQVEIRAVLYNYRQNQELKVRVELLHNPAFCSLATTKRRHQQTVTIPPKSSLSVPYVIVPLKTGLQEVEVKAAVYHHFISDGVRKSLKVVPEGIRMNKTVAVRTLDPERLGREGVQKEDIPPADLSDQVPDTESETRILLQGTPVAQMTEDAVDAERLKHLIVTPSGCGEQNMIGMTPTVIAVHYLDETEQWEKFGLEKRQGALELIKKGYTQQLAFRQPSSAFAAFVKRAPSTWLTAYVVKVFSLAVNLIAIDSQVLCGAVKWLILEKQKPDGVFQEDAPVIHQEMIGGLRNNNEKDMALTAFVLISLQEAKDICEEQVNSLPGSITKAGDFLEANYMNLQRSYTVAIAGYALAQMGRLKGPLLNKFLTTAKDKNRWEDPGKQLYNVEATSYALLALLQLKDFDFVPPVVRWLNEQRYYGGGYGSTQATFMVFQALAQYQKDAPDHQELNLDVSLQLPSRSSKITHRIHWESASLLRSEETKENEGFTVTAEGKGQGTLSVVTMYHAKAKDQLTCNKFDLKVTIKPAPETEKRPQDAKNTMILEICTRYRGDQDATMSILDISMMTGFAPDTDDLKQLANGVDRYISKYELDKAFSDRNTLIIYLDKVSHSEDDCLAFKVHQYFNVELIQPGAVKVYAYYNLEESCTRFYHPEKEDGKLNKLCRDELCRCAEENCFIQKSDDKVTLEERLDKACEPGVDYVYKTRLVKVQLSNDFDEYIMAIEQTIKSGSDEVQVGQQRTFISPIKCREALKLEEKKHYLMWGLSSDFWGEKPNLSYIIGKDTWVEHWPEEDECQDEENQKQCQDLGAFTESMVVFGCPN
# T2 sequence (P00751 260-764 limits assumed): as the sequence (P00751 260-764 limits assumed, chain 2 of 3, further chain) above
# Description: as §1
# Membrane-bound convertase was formed as in the C3bBb assay. During the convertase decay step, cells were incubated with FP alone at a fixed dose (800 ng); 4 different doses of IgG alone and a mix of both IgG and FP at the same concentration. […]
# […] Residual convertase was measured and data were expressed as percentage of inhibition (percentage of residual convertase compared to the control without peptide).
# Properdin [8] = molecular target: Properdin (human, UniProt P27918 28-469); experiment: cell-based or functional assay
# Sequence of Properdin (human, UniProt P27918 28-469) (P27918 28-469 limits assumed): as the sequence (P27918 28-469 limits assumed, chain 3 of 3, further chain) above
# [9] = molecular target: Properdin like C3NeF (3 patients' Ig positive for the C3bBb and negative for the C3bBbP test, Example 2); experiment: cell-based or functional assay
# [10] = molecular target: 3 C3NeF samples positive for the C3bBb and negative for the C3bBbP test (Example 1); experiment: cell-based or functional assay
# [11] = molecular target: 3 C3NeF samples positive in both the C3bBb and the C3bBbP tests (Example 1); experiment: cell-based or functional assay
# [12] = molecular target: Properdin enhancer C3NeF (4 patients' Ig positive in both tests, Example 2); experiment: cell-based or functional assay
# [13] = in presence of Properdin_enhancer C3NeF
# [14] = in presence of Properdin_like C3NeF
# Sequence of C3bBb alternative pathway C3 convertase (P01024 23-667 limits assumed, form in doubt, chain 1 of 3): as the sequence (P01024 23-667 limits assumed) above
# Sequence of C3bBb alternative pathway C3 convertase (P01024 749-1663 limits assumed, form in doubt, chain 2 of 3): as the sequence (P01024 749-1663 limits assumed) above
# Sequence of C3bBb alternative pathway C3 convertase (P00751 260-764 limits assumed, form in doubt, chain 3 of 3, further chain): as the sequence (P00751 260-764 limits assumed, chain 2 of 3, further chain) above
molecule,measurement,setting,value
control IgG from healthy donors (antibody),"IgG binding, residual (RU)",[1],1 RU
same,"IgG binding, residual (RU)",[2],13 RU
SMVVFLKHDEYNIENLQKTVWD (Synthetic pep1BbExt) [22 aminoacids comprising 5 aa on C3b and 17 from FB],dose dependence of inhibition of Properdin stabilization,Properdin [3],dose-dependent
same,percentage of inhibition vs control,C3NeF (patient IgG) [4]; [13],No significant difference
same,percentage of inhibition vs control,C3NeF (patient IgG) [4]; [14],significantly higher
same,capacity of peptides to bind Properdin,Properdin [5],binds
"G-EERLDKACENNDSIGASNFTG (GEERLDKACENNDSIGASNFTG; Synthetic pep3) [peptide 3, residues of C3b and Bb, left side of the C3 convertase]",% inhibition of the Properdin stabilization capacity,Properdin [3],no effect
same,decrease of % stabilization of P1 IgG,C3NeF (patient IgG) [4],remained in the same range
"G-QDEENQKQCQDLGAFTESMVVFNIENLQKTVWD (GQDEENQKQCQDLGAFTESMVVFNIENLQKTVWD; N-terminal G; Synthetic pep1) [peptide 1, 22 residues of C3b (1616-1637) and 11 residues of Bb (308-318)]",dose dependence of inhibition of Properdin stabilization,Properdin [3],dose-dependent
same,decrease of % stabilization of P1 IgG,C3NeF (patient IgG) [4],40%
same,C3NeF stabilization diminished,C3NeF (patient IgG) [4]; 3 C3NeF samples positive for the C3bBb and negative for the C3bBbP test,20-40%
same,C3NeF stabilization diminished,C3NeF (patient IgG) [4]; 3 C3NeF samples positive in both tests,20-70%
same,percentage of inhibition vs control,C3NeF (patient IgG) [4]; [13],No significant difference
same,percentage of inhibition vs control,C3NeF (patient IgG) [4]; [14],significantly higher
same,capacity of peptides to bind Properdin,Properdin [5],binds
same,dose dependence of inhibition of IgG stabilization,C3NeF (patient IgG) [6],dose dependent
GAFTESMVVFLKHDEYNIE (Synthetic short1),stabilization of the Convertase diminished,"C3NeF (patient IgG) [4]; Example 2, Properdin enhancer C3NeF (4 patients' Ig positive in both tests), 80 μg peptide",40-80%
same,percentage of inhibition vs control,C3NeF (patient IgG) [4]; [13],significantly higher
same,percentage of inhibition vs control,C3NeF (patient IgG) [4]; [14],No significant difference
GENQKQCQDLGAFTESMVVFLKHDE (Synthetic pep1C3bExt),% inhibition of the Properdin stabilization capacity,Properdin [3],no effect
same,percentage of inhibition vs control,C3NeF (patient IgG) [4]; [13],No significant difference
same,percentage of inhibition vs control,C3NeF (patient IgG) [4]; [14],significantly higher
"Properdin: complement protein Properdin (Calbiochem), stabilizes the C3 convertase",residual C3bBb lytic site,[7]; 800 ng of Properdin,60%
same,% of stabilization of C3 convertase,[7]; Properdin incubated with peptides' excipient,40%
"G-EDEEPWEQITVV YPKIWV (GEDEEPWEQITVVYPKIWV; Synthetic pep2) [peptide 2, 3 parts of C3b and one part of the vWFA domain of Bb]",% inhibition of the Properdin stabilization capacity,Properdin [3],no effect
same,decrease of % stabilization of P1 IgG,C3NeF (patient IgG) [4],remained in the same range
SMVVFLKHDEYNIENLQKTVWD (also: biotinylated when coated in ELISA) [Pep1BbExt],inhibition of the Properdin stabilization capacity,Properdin [8],80%
same,stabilization diminished,[9],20 to 40%
GENQKQCQDLGAFTESMVVFLKHDE [Pep1C3bExt],stabilization diminished,[9],20 to 40%
GQDEENQKQCQDLGAFTESMVVFNIENLQKTVWD (also: biotinylated when coated in ELISA) [Peptide 1],inhibition of the Properdin stabilization capacity,Properdin [8],80%
same,C3NeF stabilization diminished,[10],20 to 40%
same,C3NeF stabilization diminished,[11],20 to 70%
same,stabilization diminished,[9],20 to 40%
GAFTESMVVFLKHDEYNIE [short1],stabilization diminished,[12],40 to 80%
